Test results as given in PMC4619645.

Assays:
[1] = target: invariant surface glycoprotein ISG75 (Trypanosoma brucei brucei (endogenous in bloodstream-form cells, MITat 1.2, Lister 427)); experiment: native gel or EMSA; Blue Native PAGE of bloodstream-form cell lysates, followed by western blotting; carried out as described in ref. 57
[2] = target: invariant surface glycoprotein ISG65 (Trypanosoma brucei brucei (endogenous in bloodstream-form cells, MITat 1.2, Lister 427)); experiment: as above

invariant surface glycoprotein ISG75 (natural protein)
stoichiometry N [1]: > 2

invariant surface glycoprotein ISG65 (natural protein)
stoichiometry N [2]: 2
